Measured values reported in US20260159603A1 (BEAM THERAPEUTICS, published 2026).

Key:
huCD5-BTN = molecular target: T1, huCD5-BTN (human, UniProt P06127 25-372, limits assumed, biotinylated (BTN)); assay: BLI in tandem, huCD5-BTN saturated with UCHT2 first; competitor UCHT2
T1 construct: Loaded onto streptavidin biosensors; also called human CD5
T1 sequence (looked up): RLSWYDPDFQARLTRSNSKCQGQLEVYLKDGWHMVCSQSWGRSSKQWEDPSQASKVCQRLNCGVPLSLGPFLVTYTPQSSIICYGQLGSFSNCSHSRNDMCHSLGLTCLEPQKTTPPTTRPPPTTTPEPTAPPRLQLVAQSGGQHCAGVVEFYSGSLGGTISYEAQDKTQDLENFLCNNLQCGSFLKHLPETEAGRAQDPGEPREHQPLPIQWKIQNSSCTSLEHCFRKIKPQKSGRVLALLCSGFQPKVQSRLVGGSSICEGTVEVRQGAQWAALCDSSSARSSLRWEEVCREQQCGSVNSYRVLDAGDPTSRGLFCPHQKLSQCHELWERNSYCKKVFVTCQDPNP

[1] = molecular target: T2, biotinylated human CD5-HIS (human, UniProt P06127 25-372, biotinylated); assay: BLI; KD on human CD5 divided by KD on cynomolgus CD5
T2 construct: Loaded onto streptavidin Octet pins; also called huCD5; SA-human CD5; not shown: HIS tag
T2 sequence (looked up): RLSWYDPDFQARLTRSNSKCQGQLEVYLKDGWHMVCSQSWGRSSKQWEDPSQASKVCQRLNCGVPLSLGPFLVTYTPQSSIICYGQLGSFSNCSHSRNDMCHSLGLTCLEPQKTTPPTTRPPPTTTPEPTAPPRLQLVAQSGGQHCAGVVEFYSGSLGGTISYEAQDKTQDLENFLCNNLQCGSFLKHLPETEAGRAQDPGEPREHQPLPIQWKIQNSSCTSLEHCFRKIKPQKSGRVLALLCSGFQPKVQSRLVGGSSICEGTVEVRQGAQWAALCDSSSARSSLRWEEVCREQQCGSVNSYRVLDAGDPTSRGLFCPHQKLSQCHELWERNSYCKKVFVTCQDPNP

[2] = molecular target: T2, biotinylated human CD5-HIS; assay: BLI (Octet), biotinylated CD5-HIS on streptavidin pins
[3] = molecular target: T3, biotinylated cynomolgus CD5-HIS (cynomolgus); assay: as above
T3 construct: Loaded onto streptavidin Octet pins; also called CynoCD5; SA-Cyno CD5

[4] = molecular target: T4, human CD5 on transfected HEK293T cells (human, UniProt P06127 25-495); assay: flow cytometry, periplasmic extract on transfected HEK293T cells
T4 construct: whole, on cells; also called huCD5; Human CD5 Cells
T4 sequence (looked up): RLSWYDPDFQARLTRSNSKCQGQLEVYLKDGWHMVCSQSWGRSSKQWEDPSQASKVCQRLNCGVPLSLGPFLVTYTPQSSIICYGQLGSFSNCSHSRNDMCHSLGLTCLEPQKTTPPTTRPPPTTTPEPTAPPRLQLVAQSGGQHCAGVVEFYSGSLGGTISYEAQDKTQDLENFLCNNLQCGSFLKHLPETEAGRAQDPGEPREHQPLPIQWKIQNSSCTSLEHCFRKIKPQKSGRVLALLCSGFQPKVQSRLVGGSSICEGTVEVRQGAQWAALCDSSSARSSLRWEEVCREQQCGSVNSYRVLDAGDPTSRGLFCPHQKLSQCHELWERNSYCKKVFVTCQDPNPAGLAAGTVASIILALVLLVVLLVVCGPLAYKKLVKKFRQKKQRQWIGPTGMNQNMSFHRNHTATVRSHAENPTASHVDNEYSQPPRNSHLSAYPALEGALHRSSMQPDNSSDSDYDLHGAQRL

[5] = molecular target: T5, cynomolgus CD5 on transfected HEK293T cells (cynomolgus (Table 8B); rhesus macaque …); assay: as above
T5 construct: whole, on cells; also called Cynomolgus CD5 Cells; rhesus macaque (Macaca mulatta) CD5

[6] = molecular target: T2, biotinylated human CD5-HIS; assay: BLI (Octet), biotinylated CD5-HIS on streptavidin pins, periplasmic extract, off-rate
[7] = molecular target: T3, biotinylated cynomolgus CD5-HIS; assay: as above

B1: ABTx319 VHH-Fc (Fc fusion)
chain: QVQLVESGGGLVQPGGSLRLSCAASGFTFSMYSMSWVRQAPGKRLEWVSSISTGARDTAYADSVKGRFTISRDNADNTLYLHMNNLKPEDTAVYYCANGDLRYGPDGYDYRGQGTQVTVSS
notes: VHH as Fc fusion protein; order of the parts and the Fc are not described; also called anti-CD5 VHH-Fc; not shown: Fc (detected with anti-Human Fc)
huCD5-BTN
  response: 1.17 Response Units

B2: ABTx315 (VHH)
VHH: QVQLVESGGGLVQAGGSLRLSCAASGRTFGTYTMGWFRQAPGREREFVAAISWSAGRTYYADSMKGRFTISRDNAKNTVYLQMNSLKPEDTAVYYCAADPWTSDSDYDRLTMYDYWGQGTQVTVSS
notes: VHH in periplasmic extract of the phage display clone; also called clone 502; not shown: c-myc tag of the phagemid construct (detected with anti-c-myc 9E10)
[1]
  Hu/Cyno KD: 1.8
[2]
  Kd: 0.4 nM
  koff: 6.3e-05 s⁻¹
  kon: 160000 M⁻¹ s⁻¹
[3]
  Kd: 0.22 nM
  koff: 5.8e-05 s⁻¹
  kon: 260000 M⁻¹ s⁻¹
[4]
  percent of cells showing binding: 86.4%
[5]
  percent of cells showing binding: 79.1%
[6]
  koff: 0.000566 s⁻¹
[7]
  koff: 0.000345 s⁻¹

B3: ABTx315 VHH-Fc (Fc fusion)
chain: QVQLVESGGGLVQAGGSLRLSCAASGRTFGTYTMGWFRQAPGREREFVAAISWSAGRTYYADSMKGRFTISRDNAKNTVYLQMNSLKPEDTAVYYCAADPWTSDSDYDRLTMYDYWGQGTQVTVSS
notes: as for B1
huCD5-BTN
  response: 0.498 Response Units

B4: ABTx316 VHH-Fc (Fc fusion)
chain: QVQLVESGGGLVQAGGSLRLSCAASGGTVSSYAMGWFRQAPGKEREFVAVISWSGGRTYYADSVKGRFTISRDNAKNTVNLQMNSLKPEDTAVYYCAADPWTSDSDYERLTMYDYWGQGTQVTVSS
notes: as for B1
huCD5-BTN
  response: 0.394 Response Units

B5: ABTx317 (VHH)
VHH: QVQLVESGGGLVQAGASLRLSCAASGRTTYNMGWFRHAPGKDREFVAAIDLYGRATRYANSVKGRFTISRDNAKNTVYLQMNSLKPEDTAVYYCAADTSLPLGVLTKSQRMYGAWGQGTQVTVSS
notes: VHH in periplasmic extract of the phage display clone; also called clone 280; not shown: c-myc tag of the phagemid construct (detected with anti-c-myc 9E10)
[1]
  Hu/Cyno KD: 0.9
[2]
  Kd: 2.1 nM
  koff: 0.00015 s⁻¹
  kon: 71000 M⁻¹ s⁻¹
[3]
  Kd: 2.4 nM
  koff: 0.0002 s⁻¹
  kon: 84000 M⁻¹ s⁻¹
[4]
  percent of cells showing binding: 82.8%
[5]
  percent of cells showing binding: 79.5%
[6]
  koff: 0.0131 s⁻¹
[7]
  koff: 0.118 s⁻¹

B6: ABTx317 VHH-Fc (Fc fusion)
chain: QVQLVESGGGLVQAGASLRLSCAASGRTTYNMGWFRHAPGKDREFVAAIDLYGRATRYANSVKGRFTISRDNAKNTVYLQMNSLKPEDTAVYYCAADTSLPLGVLTKSQRMYGAWGQGTQVTVSS
notes: as for B1
huCD5-BTN
  response: 1.24 Response Units

B7: ABTx331 (VHH)
VHH: QVQLVESGGGLVQAGASLRLSCAASGRTTYNMGWFRHAPGKDREFVAAIDLYGRATRYANSVKGRFTISRDNAKNTVYLQMNSLKPEDTAVYYCAADTSLPLGVLTESQRLYGAWGQGTQVTVSS
notes: VHH in periplasmic extract of the phage display clone; also called clone 225; not shown: c-myc tag of the phagemid construct (detected with anti-c-myc 9E10)
[1]
  Hu/Cyno KD: 0.6
[2]
  Kd: 1.3 nM
  koff: 0.00012 s⁻¹
  kon: 94000 M⁻¹ s⁻¹
[3]
  Kd: 2.2 nM
  koff: 0.00016 s⁻¹
  kon: 71000 M⁻¹ s⁻¹
[4]
  percent of cells showing binding: 89.2%
[5]
  percent of cells showing binding: 71.8%
[6]
  koff: 0.0145 s⁻¹
[7]
  koff: 0.0557 s⁻¹

B8: ABTx331 VHH-Fc (Fc fusion)
chain: QVQLVESGGGLVQAGASLRLSCAASGRTTYNMGWFRHAPGKDREFVAAIDLYGRATRYANSVKGRFTISRDNAKNTVYLQMNSLKPEDTAVYYCAADTSLPLGVLTESQRLYGAWGQGTQVTVSS
notes: as for B1
huCD5-BTN
  response: 0.232 Response Units

B9: ABTx320 VHH-Fc (Fc fusion)
chain: QVQLVESGGGLVQAGGSLRLSCAASGPAFSSSGMGWFRQAPGKAREFVASMDWTGGSTYYGDSVKGRFTVSRDNAKMTVHLQMNSLRPEDTAVYYCARGTSGVAAVNLRGFFSWGPGTQVTVSS
notes: as for B1
huCD5-BTN
  response: 0.325 Response Units

B10: ABTx321 VHH-Fc (Fc fusion)
chain: QLQLVESGGGLVQPGESLRLSCVVSGDIFSFVGWGWYRQAPGKQREVVAQISTGGLTNYADSVKGRFAISRDNAKRTVYLQMNSLKFEDTAVYYCNVPGHPWGQGTQVTVSS
notes: as for B1
huCD5-BTN
  response: 0.0713 Response Units
